Measured values taken from US20060270596A1 (CENTRE NATIONAL DE LA RECHERCHE SCIENTIFIQUE CNRS, published 2006).

How the values were obtained:
[1] = molecular target: T1, THAP1ΔQRCRR mutant (deletion of residues 168-172) (human, UniProt Q9NVV9 1-213); assay: yeast two-hybrid, Par4 wt bait
T1 sequence: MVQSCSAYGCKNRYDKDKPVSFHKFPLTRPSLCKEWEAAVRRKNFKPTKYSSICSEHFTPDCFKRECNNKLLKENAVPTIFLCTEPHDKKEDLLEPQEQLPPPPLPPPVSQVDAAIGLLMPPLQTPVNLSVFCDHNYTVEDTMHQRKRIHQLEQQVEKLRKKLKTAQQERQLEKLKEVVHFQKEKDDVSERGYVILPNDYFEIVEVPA
Protocol: for mutant THAP1ΔQRCRR. The resulting PCR fragments were digested with EcoRI and BamHI, and cloned in frame downstream of the Gal4 Binding Domain (Gal4-BD) in pGBKT7 two-hybrid vector (Clontech) to generate pGBKT7-THAP1-RR/AA and -Δ(QRCRR), or downstream of the Enhanced Green Fluorescent Protein (EGFP)ORF in pEGFP.C2 vector (Clontech) to generate pEGFP.C2-THAP1-RR/AA and -Δ(QRCRR). THAP1RR/AA and THAP1ΔQRCRR THAP1 mutants were then tested in the three THAP1/Par4 interaction assays (two-hybrid assay, in vitro THAP1/Par4 interaction assay, in vivo THAP1/Par4 interaction assay) as described above for the THAP1-C1, -C2, -C3, -N1, -N2 or -N3 mutants.

[2] = molecular target: T2, human THAP2, full length (human, UniProt Q9H0W7 1-228); assay: yeast two-hybrid with Par-4 wild type bait
T2 construct: Two-hybrid fusion or 35S-labelled in vitro translation product
T2 sequence (Q9H0W7 whole entry, the tested form may be a part): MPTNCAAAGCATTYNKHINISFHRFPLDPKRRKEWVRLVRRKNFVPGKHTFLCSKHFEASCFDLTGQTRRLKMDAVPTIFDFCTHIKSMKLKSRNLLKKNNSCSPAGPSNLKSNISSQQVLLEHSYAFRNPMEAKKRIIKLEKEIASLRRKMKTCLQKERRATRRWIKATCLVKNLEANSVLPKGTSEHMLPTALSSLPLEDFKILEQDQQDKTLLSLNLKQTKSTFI
Protocol: (§1) To assess whether THAP2 and THAP3 are able to interact with Par-4, yeast two hybrid assays using Par-4 wild type bait (FIG. 10B) and in vitro GST pull down assays (FIG. 10C), were performed as described above (Examples 4 and 5). As shown in FIGS. 10B and 10C, THAP2 and THAP3 are able to interact with Par-4. A sequence alignment showing the comparison of the THAP domain and the PAR4-binding domain between THAP1, THAP2 and THAP3 is shown in FIG. 10A.

[3] = molecular target: T3, human THAP3, full length (human, UniProt Q8WTV1 1-239); assay: yeast two-hybrid with Par-4 wild type bait
T3 construct: Two-hybrid fusion or 35S-labelled in vitro translation product
T3 sequence: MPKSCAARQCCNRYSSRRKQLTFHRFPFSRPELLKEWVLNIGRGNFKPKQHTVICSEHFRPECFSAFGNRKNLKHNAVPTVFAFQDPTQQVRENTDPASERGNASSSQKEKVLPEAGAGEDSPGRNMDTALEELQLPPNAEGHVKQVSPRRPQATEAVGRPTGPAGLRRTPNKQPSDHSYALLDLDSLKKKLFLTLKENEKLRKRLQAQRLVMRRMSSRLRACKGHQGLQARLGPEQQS
Protocol: as §1

[4] = molecular target: T4, human THAP1 (THanatos-Associated-Protein-1), full length (human, UniProt Q9NVV9 1-213); assay: yeast two-hybrid, both orientations
T4 construct: these tags are not written into the chain; also called hTHAP1; THAP1 wild type
T4 sequence: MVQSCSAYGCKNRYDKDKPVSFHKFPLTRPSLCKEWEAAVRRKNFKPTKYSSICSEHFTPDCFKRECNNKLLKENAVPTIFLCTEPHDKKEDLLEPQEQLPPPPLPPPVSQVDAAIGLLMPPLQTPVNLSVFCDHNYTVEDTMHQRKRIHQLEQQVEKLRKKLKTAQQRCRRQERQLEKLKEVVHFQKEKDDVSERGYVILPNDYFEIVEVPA
Protocol: To identify potential protein partners of THAP1, screening of the two-hybrid HEVEC cDNA library was performed using as a bait the human THAP1 full length cDNA inserted into the […] two-hybrid system 3 vector pGBKT7 (Clontech). Briefly, the full-length coding region of THAP1 was amplified by PCR from HEVEC cDNA with primers 2HMR10 (5′-[…]-3′) (SEQ ID NO: 187) and 2HMR9 (5′-[…]-3′) (SEQ ID NO: 188), digested with EcoRI and BamHI, and cloned in frame downstream of the Gal4 Binding Domain (Gal4-BD) in pGBKT7 vector to generate pGBKT7-THAP1. pGBKT7-THAP1 was then cotransformed with the pGAD424-HEVEC cDNA library in yeast strain AH109 (Clontech). 1.5×10⁷ yeast transformants were screened and positive protein interactions were selected by His and Ade double auxotrophy according to manufacturer's instructions ([…] two-hybrid system 3, Clontech). The plates were incubated at 30° C. for 5 days. Plasmid DNA was extracted from these positive colonies and used to verify the specificity of the interaction by cotransformation in AH109 with pGBKT7-THAP1 or control baits pGBKT7, pGBKT7-lamin and pGBKT7-hevin. […] Positive interaction between THAP1 and Par4 was confirmed using full length Par4 bait (pGBKT-Par4) and prey (pGADT7-Par4). […]

[5] = molecular target: T5, THAP1-C2 deletion mutant (amino acids 120-213) (human, UniProt Q9NVV9 120-213); assay: yeast two-hybrid, Par4 wt bait
T5 construct: Gal4 fusion, in vitro translation product or GFP fusion according to assay
T5 sequence: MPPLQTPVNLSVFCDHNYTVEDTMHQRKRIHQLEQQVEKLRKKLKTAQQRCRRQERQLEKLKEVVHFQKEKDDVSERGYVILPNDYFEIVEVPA

[6] = molecular target: T6, THAP1-C3 deletion mutant (amino acids 143-213) (human, UniProt Q9NVV9 143-213); assay: yeast two-hybrid, Par4 wt bait
T6 construct: Gal4 fusion, in vitro translation product or GFP fusion according to assay
T6 sequence: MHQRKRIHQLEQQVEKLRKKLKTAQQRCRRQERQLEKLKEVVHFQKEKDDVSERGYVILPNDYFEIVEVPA

[7] = molecular target: T7, THAP1-N3 deletion mutant (amino acids 1-192) (human, UniProt Q9NVV9 1-192); assay: yeast two-hybrid, Par4 wt bait
T7 construct: Gal4 fusion, in vitro translation product or GFP fusion according to assay
T7 sequence: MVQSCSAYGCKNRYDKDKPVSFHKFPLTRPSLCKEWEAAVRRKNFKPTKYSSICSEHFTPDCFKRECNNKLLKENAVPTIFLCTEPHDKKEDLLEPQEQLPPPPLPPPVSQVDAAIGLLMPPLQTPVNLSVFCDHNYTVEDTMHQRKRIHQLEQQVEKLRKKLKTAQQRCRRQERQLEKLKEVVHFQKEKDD

[8] = molecular target: T8, THAP1-C1 deletion mutant (amino acids 90-213) (human, UniProt Q9NVV9 90-213); assay: yeast two-hybrid, Par4 wt bait
T8 construct: Gal4 fusion, in vitro translation product or GFP fusion according to assay; also called THAP1-CL; THAP1ΔTHAP
T8 sequence: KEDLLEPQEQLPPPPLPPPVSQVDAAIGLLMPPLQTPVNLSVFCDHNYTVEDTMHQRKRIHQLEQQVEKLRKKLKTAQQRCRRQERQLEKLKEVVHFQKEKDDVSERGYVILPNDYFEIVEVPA

[9] = molecular target: T9, THAP1-N1 deletion mutant (amino acids 1-90) (human, UniProt Q9NVV9 1-90); assay: yeast two-hybrid, Par4 wt bait
T9 construct: Gal4 fusion, in vitro translation product or GFP fusion according to assay; also called zinc finger domain of THAP1
T9 sequence: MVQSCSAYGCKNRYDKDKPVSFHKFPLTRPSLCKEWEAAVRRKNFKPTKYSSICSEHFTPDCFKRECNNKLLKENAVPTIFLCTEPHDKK

[10] = molecular target: T10, THAP1-N2 deletion mutant (amino acids 1-166) (human, UniProt Q9NVV9 1-166); assay: yeast two-hybrid, Par4 wt bait
T10 construct: Gal4 fusion, in vitro translation product or GFP fusion according to assay
T10 sequence: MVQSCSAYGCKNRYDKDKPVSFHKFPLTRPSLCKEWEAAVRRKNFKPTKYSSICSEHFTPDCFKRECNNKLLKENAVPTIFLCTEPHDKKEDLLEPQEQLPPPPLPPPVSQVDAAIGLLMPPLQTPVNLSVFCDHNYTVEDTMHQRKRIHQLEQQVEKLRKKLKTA

[11] = molecular target: T11, THAP1 chemokine-binding domain/IgG1-Fc fusion constructed as described in Example 18B (THAP1 amino acids … (human, UniProt Q5RCE4 140-213 (Pongo abelii entry))); assay: surface plasmon resonance (Biacore), Chemotrap-I coupled to the chip, CCL5/RANTES at 25, 50, 100 and 200 nM as analyte
T11 construct: Secreted with an immunoglobulin kappa light chain signal peptide (left out); also called Chemotrap-I; Chemotrap; not shown: human IgG1-Fc polypeptide from the N-terminal hinge region to the native C-terminus (hinge, CH2, CH3)
T11 sequence: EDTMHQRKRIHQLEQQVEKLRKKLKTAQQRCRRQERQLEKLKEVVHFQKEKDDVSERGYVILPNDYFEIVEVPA
Excerpt: (§2) In this Example, surface plasmon resonance (SPR) was used to determine the dissociation constant for the binding of Rantes/CCL5 to a THAP1 chemokine binding domain/IgG1-Fc fusion prepared as described in Example 18B. All SPR measurements were made using a Biacore 3000 system (Biacore, Uppsala Sweden). […] Dextran layer free biosensors, C1 type, were used to assay specific interaction between Rantes/CCL5 and the THAP1 chemokine-binding domain/IgG1-Fc fusion. Purified recombinant human Rantes/CCL5 (purchased from Chemicon) were used as analyte protein at a fixed concentration in the fluid phase (10 mM HEPES pH 7.4, 150 mM NaCl, 3 mM EDTA, 0.005% P20 surfactant, as a running buffer), and at a constant flow of 20 μl/minute. To determine the binding kinetics, association and dissociation curves were established for several increasing concentration of chemokine: 25 nM, 50 nM, 100 nM and 200 nM for CCL5, respectively. Chemokine was injected during the association phase for 4 minutes (20 μl/minute). The dissociation phase was carried out over a period of 5 minutes. Between each phase of association-dissociation, the flow cells were regenerated by injection of 0.05% SDS (30 seconds at a flow rate of 20 μl/minute). Biaevaluation (Biacore) software was used for calculations of association and dissociation kinetic constants. […]
(§3) The dissociation constant was calculated to be 49 nM.

[12] = molecular target: T11, THAP1 chemokine-binding domain/IgG1-Fc …; assay: SPR (Biacore 3000); Fc fusion amine-coupled to a C1 sensor chip, Rantes/CCL5 as analyte at 25, 50, 100 and 200 nM; KD=kd/ka
Excerpt: as §2, §3

B1: human prostate apoptosis response-4 (PAR4), full length (other)
chain: MATGGYRTSSGLGGSTTDFLEEWKAKREKMRAKQNPPGPAPPGGGSSDAAGKPPAGALGTPAAAAANELNNNLPGGAPAAPAVPGPGGVNCAVGSAMLTRAPPARGPRRSEDEPPAASASAAPPPQRDEEEPDGVPEKGKSSGPSARKGKGQIEKRKLREKRRSTGVVNIPAAECLDEYEDDEAGQKERKREDAITQQNTIQNEAVNLLDPGSSYLLQEPPRTVSGRYKSTTSVSEEDVSSRYSRTDRSGFPRYNRDANVSGTLVSSSTLEKKIEDLEKEVVTERQENLRLVRLMQDKEEMIGKLKEEIDLLNRDLDDIEDENEQLKQENKTLLKVVGQLTR
notes: Gal4-BD or Gal4-AD fusion in two-hybrid; also called Par4 wild type
Does B1 bind [1]?
Result: no binding

Does B1 bind [2]?
Result: binds

Does B1 bind [3]?
Result: binds

Does B1 bind [4]?
Result: binds

Does B1 bind [5]?
Result: binds

Does B1 bind [6]?
Result: binds

Does B1 bind [7]?
Result: binds

Does B1 bind [8]?
Result: binds

Does B1 bind [9]?
Result: no binding

Does B1 bind [10]?
Result: no binding

B2: purified recombinant human Rantes/CCL5 (purchased from Chemicon) (ligand)
chain: SPYSSDTTPCCFAYIARPLPRAHIKEYFYTSGKCSNPAVVFVTRKNRQVCANPEKKWVREYINSLEMS
notes: Bought protein; also called recombinant Rantes/CCL5 human chemokine
With B2 as the binder, how does the koff [11] read?
The koff was 0.00229 s⁻¹.

And the kon [11]?
Its kon is 46400 M⁻¹ s⁻¹.

What about the Kd [12] of the same binder?
The Kd was 49 nM.
